Measured values reported in paper doi:10.1101/2021.11.12.467822 (bioRxiv, 2021).

Tests used:
HOTag6-G10-Ub [1] = test: NMR titration
M1-linked Ub4 [2] = molecular target: M1-linked Ub4 (UniProt P0CG48); test: NMR titration
ubiquitin (Ub) = ubiquitin (Ub) (UniProt P0CG48 1-76); test: fluorescence polarisation
HOTag6-G10-Ub [3] = test: fluorescence polarisation
M1-linked Ub4 [4] = molecular target: M1-linked Ub4 (UniProt P0CG48); test: fluorescence polarisation

Sequence of M1-linked Ub4 (P0CG48 1-304): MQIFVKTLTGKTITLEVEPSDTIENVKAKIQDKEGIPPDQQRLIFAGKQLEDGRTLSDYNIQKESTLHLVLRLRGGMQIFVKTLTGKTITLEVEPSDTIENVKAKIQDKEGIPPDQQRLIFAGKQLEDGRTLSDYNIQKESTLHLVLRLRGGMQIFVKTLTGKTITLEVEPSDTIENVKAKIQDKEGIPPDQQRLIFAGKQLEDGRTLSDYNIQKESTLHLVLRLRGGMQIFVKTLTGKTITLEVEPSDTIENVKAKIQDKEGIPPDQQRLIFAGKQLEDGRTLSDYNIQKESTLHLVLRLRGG

B1: UBQLN2 450-624 (domain or fragment)
chain: RAMQALMQIQQGLQTLATEAPGLIPSFTPGVGVGVLGTAIGPVGPVTPIGPIGPIVPFTPIGPIGPIGPTGPAAPPGSTGSGGPTGPTVSSAAPSETTSPTSESGPNQQFIQQMVQALAGANAPQLPNPEVRFQQQLEQLNAMGFLNREANLQALIATGGDINAAIERLLGSQPS
Kd (HOTag6-G10-Ub [1]): 8.8 µM
Kd (M1-linked Ub4 [2]): 12.8 µM

B2: fluorescently-labeled UBQLN2 450-624 (S624C, Alexa Fluor 488) (domain or fragment)
chain: RAMQALMQIQQGLQTLATEAPGLIPSFTPGVGVGVLGTAIGPVGPVTPIGPIGPIVPFTPIGPIGPIGPTGPAAPPGSTGSGGPTGPTVSSAAPSETTSPTSESGPNQQFIQQMVQALAGANAPQLPNPEVRFQQQLEQLNAMGFLNREANLQALIATGGDINAAIERLLGSQPC
modifications: Alexa Fluor 488 C5 Maleimide label (S624C mutation)
Kd (ubiquitin (Ub)): 3.4 µM
Kd (HOTag6-G10-Ub [3]): 7 µM
Kd (M1-linked Ub4 [4]): 5.1 µM
